Reference: patent US20250276090A1, “Methods and Compositions for Genetically Modifying a Cell” (Intellia Therapeutics, Inc., priority 2022, published 2025)
Strand notation (5' to 3'): a small letter for the sugar, then the base; units joined by * are phosphorothioate-linked, units joined directly phosphodiester-linked; [ ] holds rarer units or linkages, { } end groups; capitals alone tell only the bases. m = 2'-O-methyl; r = 2'-OH (RNA)

How the values were obtained:
Format in all cases: cell-based, human
AAVS1 = assay: GFP insertion at AAVS1 in T cells with SpyCas9 RNP and gapped AAV templates, flow cytometry (Example 6); details: day 7 post-editing
Experimental: AAVS1 guide RNAs were designed and screened to identify insertion SpyCas9 guides using a series of gapped AAV GFP templates (A, B, C, D, OG) each designed for a subset of the guide RNAs. Insertion efficacy in T cells was examined by assessing GFP expression by flow cytometry. The percentage of T cells positive for green fluorescent protein (“% GFP+”) was assayed by flow cytometry, following AAVS1 editing by mRNA and AAV delivery.
Healthy human donor apheresis was obtained commercially (Hemacare) from two donors (#110042863 and #110040377) and cells were washed and resuspended in MACS Buffer containing 2 mM EDTA and 0.5% Fetal Bovine Serum (FBS) in PBS. Cells were washed twice by centrifugation followed by CD3 negative selection using Easy Sep Human T Cell Isolation Kit (Stemcell, Cat. 100-0695) and separated using Easy Sep Magnets (Stemcell, Cat.18000). T cells were aliquoted and cryopreserved for future use in Cryostor® CS10 (StemCell Technologies Cat. 07930).
AAVS1 guide RNAs were assessed for insertion efficacy in T cells by assessing GFP expression by flow cytometry. The percentage of T cells positive for green fluorescent protein (“% GFP+”) was assayed by flow cytometry, following AAVS1 editing by mRNA and AAV delivery.
AAVS1 targeting sgRNAs corresponding to the flanking homology regions of Gap Templates A, B, C, D, & OG (SEQ ID NOs: 299-303) were removed from their storage plates and denatured for 2 minutes at 95° C. before cooling at room temperature for 10 minutes. RNP mixture of 20 μM sgRNA and 10 μM Cas9-NLS protein (SEQ ID NO: 296) was prepared and incubated at 25° C. for 10 minutes. 2.5 μL of RNP mixture was combined with 250,000 cells in […] P3 electroporation Buffer (Lonza). 22 μL of RNP/cell mix was transferred to the corresponding wells of a Lonza shuttle 96-well electroporation plate. Cells were electroporated in duplicate with the manufacturer's pulse code. T cell media described above without any cytokines was added to the cells immediately post electroporation. T cells were rested for 10 minutes at 37° C. Gap Template AAVs were prepared in 48 well plates (Corning, Cat.353078)) with T cell media described above containing 2× cytokines, 400 U/mL recombinant human interleukin-2 (Peprotech, Cat. 200-02), 10 ng/ml recombinant human interleukin 7 (Peprotech, Cat. 200-07), and 10 ng/ml recombinant human interleukin 15 (Peprotech, Cat. 200-15) cytokines. The multiplicity of infection (MOI) of AAVs was 3×10^^5. AAVs were added to the T cells within 15 minutes post electroporation and incubated for 48 hours at 37° C. AAV-6 vectors encoded AAVS1 Template A, B, C, D or OG. Two days post-electroporation, cells were split 1:2 in 48 well plates replenished with T cell media with 1× cytokines as described above. sgRNAs were tested each with AAV constructs and gapped template.
On day 7 post-editing, cells were phenotyped by flow cytometry to determine GFP expression to confirm integration of AAV at their GAP template site. Briefly, T cells were washed in FACS buffer containing 2 mM EDTA (Invitrogen, Cat.15575020) and 1% FBS in PBS followed by re-suspending in FACS buffer containing 1:10,000 dilution of DAPI (Biolegend, Cat.422801) nuclear stain. Cells were then processed on a Cytoflex flow cytometer (Beckman Coulter) and analyzed using the FlowJo software package. T cells were gated based on size, shape, viability, and GFP expression. Values that were not determined by the flow cytometer were denoted as “ND”. Table 18 and FIGS. 8A-8B show mean percentage of T cells positive for GFP expression.

CIITA locus = assay: NGS percent editing with SpyCas9 and Nme2 base editor, CIITA (Example 9); details: CIITA BE guide, Day 7
Description: (§1) Genomic DNA was extracted using QuickExtract™ DNA Extraction Solution (Lucigen, Cat. No. QE09050) according to manufacturer's protocol.
(§2) To quantitatively determine the efficiency of editing at the target location in the genome, deep sequencing was utilized to identify the presence of insertions, deletions, and substitution introduced by gene editing. PCR primers were designed around the target site within the gene of interest (e.g., HLA-A) and the genomic area of interest was amplified. Primer sequence design was done as is standard in the field.
(§3) Additional PCR was performed according to the manufacturer's protocols (Illumina) to add chemistry for sequencing. The amplicons were sequenced on an Illumina MiSeq instrument. The reads were aligned to the human reference genome (e.g., hg38) after eliminating those having low quality scores. Reads that overlapped the target region of interest were re-aligned to the local genome sequence to improve the alignment. Then the number of wild type reads versus the number of reads which contain C-to-T mutations, C-to-A/G mutations or indels was calculated. Insertions and deletions were scored in a 20 bp region centered on the predicted Cas9 cleavage site. Indel percentage is defined as the total number of sequencing reads with one or more base inserted or deleted within the 20 bp scoring region divided by the total number of sequencing reads, including wild type. C-to-T mutations or C-to-A/G mutations were scored in a 40 bp region including 10 bp upstream and 10 bp downstream of the 20 bp sgRNA target sequence. The C-to-T editing percentage is defined as the total number of sequencing reads with either one or more C-to-T mutations within the 40 bp region divided by the total number of sequencing reads, including wild type. The percentage of C-to-A/G mutations are calculated similarly.
(§4) Isolated, cryopreserved T cells were thawed in a water bath and plated at a density of 1×10^6 cells/mL in TCAM media containing CTS OpTmizer T Cell Expansion SFM and T Cell Expansion Supplement (ThermoFisher Cat. A1048501), 1× Penicillin-Streptomycin, 1× Glutamax, 10 mM HEPES, 200 U/mL recombinant human interleukin-2 (Peprotech, Cat. 200-02), 5 ng/mL recombinant human interleukin 7 (Peprotech, Cat. 200-07), and 5 ng/mL recombinant human interleukin 15 (Peprotech, Cat. 200-15) and 2.5% human AB serum (GeminiBio, Cat. 100-512). Technical replicates were prepared using isolated T cells from multiple donors. Data shown is from a selected donor.
(§5) LNPs were generally prepared as described in Example 1. Lipid nanoparticles in this example were prepared with molar ratios of 35 Lipid A: 47.5 cholesterol: 15 DSPC: 2.5 PEG2k-DMG. LNPs were made with a lipid amine to RNA phosphate (N:P) molar ratio of about 6. LNPs were formulated with a single RNA species or coformulated with multiple RNA species as described in Table 32. LNPs were delivered to T cells in TCAM media containing ApoE3 (Peprotech, Cat. 350-02) as described in Table 32.
(§6) On Day 1 (e.g., about 24 hours post thaw) cells were harvested and activated with TransAct™ (1:100 dilution, Miltenyi Biotec). LNPs were applied at the doses listed in Table 32 on Day 3 along with 0.5 uM of Compound 1.
(§7) Beginning on Day 4, cells were split and media refreshed regularly. On Day 7, a portion of cells were harvested for sequencing analysis at TRAC, TRBC1, TRBC2 and CIITA loci. NGS analysis was performed as described in Example 1. Table 33 and FIG. 15 show mean percent editing for these cells.

TRBC1 locus = assay: NGS percent editing with SpyCas9 and Nme2 base editor, TRBC1 (Example 9); details: TRBC1 BE guide, Day 7
Description: as §1, §2, §3, §4, §5, §6, §7

B1: G013523: AAVS1 SpyCas9 guide RNA, guide sequence SEQ ID NO: 255, chr19:55115637-55115657 (nucleic acid)
guide: mG*mG*mU*rGrArCrArCrArCrCrCrCrCrArUrUrUrCrCrGrUrUrUrUrArGrAmGmCmUmAmGmAmAmAmUmAmGmCrArArGrUrUrArArArArUrArArGrGrCrUrArGrUrCrCrGrUrUrArUrCrAmAmCmUmUmGmAmAmAmAmAmGmUmGmGmCmAmCmCmGmAmGmUmCmGmGmUmGmCmU*mU*mU*mU
Mean percentage of T cells positive for GFP expression (AAVS1; Donor 1, Template D): 70.50% | Mean percentage of T cells positive for GFP expression (AAVS1; Donor 2, Template D): 72.05%

B2: G026584 (nucleic acid)
guide: UCAAAGUACCCUACAGGAGGACCAGUUGUAGCUCCCUGAAACCGUUGCUACAAUAAGGCCGUCGAAAGAUGUGCCGCAACGCUCUGCCUUCUGGCAUCGUU
modifications: chemical modifications, further chemistry not given here
Mean percent editing, C to A/G (CIITA locus; BE mRNA 0.5 ug/mL): 1.2% | Mean percent editing, C to T (CIITA locus; BE mRNA 0.5 ug/mL): 91.8% | Mean percent editing, Indels (CIITA locus; BE mRNA 0.5 ug/mL): 0.9% | Mean percent editing, C to A/G (CIITA locus; BE mRNA 1.0 ug/mL): 1.4% | Mean percent editing, C to T (CIITA locus; BE mRNA 1.0 ug/mL): 91.6% | Mean percent editing, Indels (CIITA locus; BE mRNA 1.0 ug/mL): 0.6%

B3: G013543: AAVS1 SpyCas9 guide RNA, guide sequence SEQ ID NO: 257, chr19:55115755-55115775 (nucleic acid)
guide: mU*mG*mU*rCrCrCrUrArGrUrGrGrCrCrCrCrArCrUrGrGrUrUrUrUrArGrAmGmCmUmAmGmAmAmAmUmAmGmCrArArGrUrUrArArArArUrArArGrGrCrUrArGrUrCrCrGrUrUrArUrCrAmAmCmUmUmGmAmAmAmAmAmGmUmGmGmCmAmCmCmGmAmGmUmCmGmGmUmGmCmU*mU*mU*mU
Mean percentage of T cells positive for GFP expression (AAVS1; Donor 1, Template OG): 65.25% | Mean percentage of T cells positive for GFP expression (AAVS1; Donor 2, Template OG): 64.40%

B4: G028986: TRBC sgRNA for Nme2 Base Editor (nucleic acid)
guide: GUGUCCUACCAGCAAGGGGUCCUGGUUGUAGCUCCCUGAAACCGUUGCUACAAUAAGGCCGUCGAAAGAUGUGCCGCAACGCUCUGCCUUCUGGCAUCGUU
modifications: chemical modifications; listed as RNA; modified_base 1: mod_base = OTHER; note = 2'-O-methyl modified nucleotide with phosphorothioate linkage; modified_base 2: mod_base = OTHER; modified_base 3: mod_base = OTHE
notes: TRBC sgRNA for Nme2 Base Editor
Mean percent editing, C to A/G (TRBC1 locus; BE mRNA 0.5 ug/mL): 1.0% | Mean percent editing, C to T (TRBC1 locus; BE mRNA 0.5 ug/mL): 94.4% | Mean percent editing, Indels (TRBC1 locus; BE mRNA 0.5 ug/mL): 0.3% | Mean percent editing, C to A/G (TRBC1 locus; BE mRNA 1.0 ug/mL): 0.9% | Mean percent editing, C to T (TRBC1 locus; BE mRNA 1.0 ug/mL): 93.3% | Mean percent editing, Indels (TRBC1 locus; BE mRNA 1.0 ug/mL): 1.0%
